Columns and labels:
[1] = target: D2 (his-tagged domain 2 of extracellular endo-alpha-(1->5)-L-arabinanase 1) (Geobacillus stearothermophilus T-6) (UniProt B3EYN2); test: reflectometric porous-silicon aptasensor (real-time EOT); details: 5'-amino, Selection buffer: 50 mM K2HPO4, 150 mM NaCl, pH 7.4, flow 30 uL/min for 1 h, temperature not stated, elution with 1 M imidazole
[2] = target: D2N (D2 without his tag) (Geobacillus stearothermophilus T-6) (UniProt B3EYN2); test: as above; details: 1 uM protein, 5'-amino, Selection buffer: 50 mM K2HPO4, 150 mM NaCl, pH 7.4, flow 30 uL/min for 1 h, temperature not stated, elution with 1 M imidazole

Q: How did the binding signal (relative dEOT/EOT0 x10^-3) ([1]; 0.25 uM protein, 3D-printed microfluidic) turn out when “GCTATGGGTGGTCTGGTTGGGATTGGCCCCGGGAGCTGGC [anti-his tag aptamer 6H7]” was run?
A: 1.6

Q: And the binding signal (relative dEOT/EOT0 x10^-3) ([1]; 0.5 uM protein, 3D-printed microfluidic, reused sensor)?
A: 2.3

Q: And the binding signal (relative dEOT/EOT0 x10^-3) ([1]; 1 uM protein, 3D-printed microfluidic, released by 1 M imidazole)?
A: 4

Q: And the binding signal (relative dEOT/EOT0 x10^-3) ([1]; 1 uM protein, PDMS microfluidic, signal partly non-specific adsorption)?
A: 3.2

Q: And the binding signal (relative dEOT/EOT0 x10^-3) ([2]; PDMS microfluidic, ascribed to non-specific adsorption)?
A: 1.7

Q: What about the binding signal (relative dEOT/EOT0 x10^-3) ([2]; 3D-printed microfluidic) of the same sequence?
A: 0.8

Source: publication PMC7862519
